Measurements published in patent US20200399344A1 (SHATTUCK LABS, published 2020).
Where “and” joins values, the source holds several entries; their conditions need not be identical. Equal values may be shown once.

Assays:
[1] = target: T1, anti-mFc IgG antibody (plate-bound); test: Fc ELISA: coat Anti-mFc (Jax), detect Anti-mFc-HRP (Jax)
T1 construct: also called anti-Fc antibody
Excerpt: A mouse whole IgG was used to generate a standard curve.

[2] = target: T2, HLA class I histocompatibility antigen, alpha chain E (HLA-E), plate-bound recombinant protein (human, UniProt P13747 22-305, limits assumed); test: Dual binding ELISA: coat mHLA-E (Novus) as printed, detect Anti-mCD48 (R&D), HRP Anti-Goat HRP
T2 construct: no tag named there; also called recombinant HLA-E protein

[3] = target: T3, recombinant human CD28-His (rhCD28-His) (human, UniProt P10747 19-152); test: ELISA: coat rhCD28-His (Acro), detection printed as Anti-hFc-HRP
T3 construct: also called Human CD28-His protein; recombinant CD28 protein; not shown: His tag
Experimental: To understand whether the CD80 and CD86 parts of the hCD80-Fc-NKG2A and hCD86-Fc-NKG2A chimeric protein can bind CD28, ELISA-based assays were performed. Briefly, recombinant CD28 protein was coated on plates and increasing amounts of the hCD80-Fc-NKG2A, hCD86-Fc-NKG2A, and mCD48-Fc-NKG2A chimeric proteins, and recombinant human CD86-Fc (rhCD86-Fc) protein was added to the plates for capture by the plate-bound recombinant CD28 protein. The mCD48-Fc-NKG2A chimeric protein, and recombinant human CDrhCD86-Fc protein was used as negative and positive controls, respectively. The chimeric proteins bound to the recombinant CD28 protein was detected using an anti-human Fc HRP.

[4] = target: T4, recombinant mCD47 (mCD47-His) protein (mouse, UniProt Q61735 19-140, limits assumed); test: sandwich ELISA, anti-NKG2a antibody coated, mCD47-His detection (FIG. 38)
T4 construct: not shown: His tag
T4 sequence (looked up): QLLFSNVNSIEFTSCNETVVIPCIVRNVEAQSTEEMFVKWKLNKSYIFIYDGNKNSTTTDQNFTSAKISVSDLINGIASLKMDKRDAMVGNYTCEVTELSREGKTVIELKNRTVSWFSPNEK
Experimental: Increasing amounts of the mSIRPα-Fc-NKG2A chimeric protein was added and detected using mCD47-His. The CD86-Fc-NKG2A chimeric protein was used as a negative control.
To understand whether the mSIRPα-Fc-NKG2A chimeric protein can binds simultaneously to both anti-NKG2a and CD47, the following ELISA experiment was carried out. Briefly, and anti-NKG2a antibody was coated on plates. Increasing amounts of the mSIRPα-Fc-NKG2A and mCD48-Fc-NKG2A chimeric proteins were added to the plates for capture by the anti-NKG2a antibody. Further, recombinant mCD47 (mCD47-His) protein was added to the plate for capture by mSIRPα-Fc-NKG2A chimeric protein. The binding of the mCD47-His protein was detected using an anti-His HRP antibody.

T2 sequence (P13747 22-305 limits assumed): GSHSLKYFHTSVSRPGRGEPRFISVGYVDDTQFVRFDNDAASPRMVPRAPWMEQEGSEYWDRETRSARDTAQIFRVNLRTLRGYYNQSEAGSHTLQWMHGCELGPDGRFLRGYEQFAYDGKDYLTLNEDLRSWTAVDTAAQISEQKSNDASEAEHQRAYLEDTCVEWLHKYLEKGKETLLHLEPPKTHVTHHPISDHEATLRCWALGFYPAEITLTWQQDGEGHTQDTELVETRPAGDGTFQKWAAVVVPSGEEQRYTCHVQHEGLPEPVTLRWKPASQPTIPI
T3 sequence (P10747 19-152 limits assumed): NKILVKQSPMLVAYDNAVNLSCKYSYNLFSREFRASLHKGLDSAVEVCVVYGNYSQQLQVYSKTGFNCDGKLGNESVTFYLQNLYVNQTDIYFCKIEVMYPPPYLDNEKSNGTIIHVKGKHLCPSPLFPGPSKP

B1: mouse CD48-Fc-NKG2A chimeric protein (Fc fusion)
chain: FQGHSIPDINATTGSNVTLKIHKDPLGPYKRITWLHTKNQKILEYNYNSTKTIFESEFKGRVYLEENNGALHISNVRKEDKGTYYMRVLRETENELKITLEVFDPVPKPSIEINKTEASTDSCHLRLSCEVKDQHVDYTWYESSGPFPKKSPGYVLDLIVTPQNKSTFYTCQVSNPVSSKNDTVYFTLPCDLARSVPRDCGCKPCICTVPEVSSVFIFPPKPKDVLTITLTPKVTCVVVDISKDDPEVQFSWFVDDVEVHTAQTQPREEQFNSTFRSVSELPIMHQDWLNGKEFKCRVNSAAFPAPIEKTISKTKGRPKAPQVYTIPPPKEQMAKDKVSLTCMITDFFPEDITVEWQWNGQPAENYKNTQPIMDTDGSYFVYSKLNVQKSNWEAGNTFTCSVLHEGLHNHHTEKSLSHSPGIIEGRMDTPYTEAKAQINSSMTRTHRDINYTLSSAQPCPHCPKEWISYSHNCYFIGMERKSWNDSLVSCISKNCSLLYIDSEEEQDFLQSLSLISWTGILRKGRGQPWVWKEDSIFKPKIAEILHDECNCAMMSASGLTADNCTTLHPYLCKCKFPI
notes: also called mCD48-Fc-NKG2A
- EC50 [1]: 0.938 nM and 0.436 nM
- EC50 [2]: 537 nM and 381 nM
- binding result [3]: no binding (tested: log[Agonist] about 2.7, ug/ml)
- binding result [4]: no binding
